From PMC11449929, “Structural basis of α-latrotoxin transition to a cation-selective pore” (Nature Communications, 2024)
Where “and” joins values, the source holds several entries; their conditions need not be identical. Identical values can stand only once.

Target: the molecule itself
Experiment: cryo-EM structure; α-LTX at 0.5 mg/ml in 25 mM Tris-HCl pH 8.0, 150 mM NaCl, 0.1 mM CaCl2, 0.2 mM MgCl2; 2D classification and 3D reconstruction of two tetrameric states (prepore, pore)

B1: α-latrotoxin (natural protein)
chain: EGEDLTLEEKAEICSELELQQKYVDIASNIIGDLSSLPIAGKIAGTIAAAAMTATHVASGRLDIEQTLLGCSDLPFDQIKEVLENRFNEIDRKLDSHSAALEEITKLVEKSISVVEKTRKQMNKRFDEVMKSIQDAKVSPIISKINNFARYFDTEKERIRGLKLNDYILKLEEPNGILLHFKESRTPTDDSLQAPLFSIIEEGYAVPKSIDDELAFKVLYALLYGTQTYVSVMFFLLEQYSFLANHYYEKGYLEKYDEYFNSLNNVFLDFKSSLVGTGTSNNEGLLDRVLQVLMTVKNSEFLGLEKNGVDEMLNEKINLFNKIKEEIEGKQKMTLSETPENFAQISFDKDITTPIGDWRDGREVRYAVQYASETLFSKISHWSDPVSVREKACPTLRMPVDQTRRNVLVFRKFDSSKPQLVGEITPYLSNFIDIDRDLYNAASNPDSAVGFKEFTKLNYDGANIRATFDHGRTVFHAAAKSGNDKIMFGLTFLAKSTELNQPDKKGYTPIHVAADSGNAGIVNLLIQRGVSINSKTYHFLQTPLHLAAQRGFVTTFQRLMESPEININERDKDGFTPLHYAIRGGERILEAFLNQISIDVNAKSNTGLTPFHLAIIKNDWPVASTLLGSKKVDINAVDENNITALHYAAILGYLETTKQLINLKEINANVVSSPGLLSALHYAILYKHDDVASFLMRSSNVNVNLKALGGITPLHLAVIQGRKQILSLMFDIGVNIEQKTDEKYTPLHLAAMSKYPELIQILLDQGSNFEAKTNSGATPLHLATFKGKSQAALILLNNEVNWRDTDENGQMPIHGAAMTGLLDVAQAIISIDATVVDIEDKNSDTPLNLAAQNSHIDVIKYFIDQGADINTRNKKGLAPLLAFSKKGNLDMVKYLFDKNANVYIADNDGMNFFYYAVQNGHLNIVKYAMSEKDKFEWSNTDNNRRDECPNEECAISHFAVCDAVQFDRIEIVKYFVGTLGNFAICGPLHQAARYGHLDIVKYLVEEEFLSVDGSKTDTPLCYASENGHFTVVQYLVSNGAKVNHDCGNGMTAIDKAITKNHLQVVQFLAANGVDFRRKNSRGTTPFLTAVAENALHIAEYLIREKRQDININEQNVDKDTALHLAVYYKNLQMIKLLIKYGIDVTIRNAYDKTALDIAIDAKFSNIVEYLKTKSGKFRR
notes: Tetramer in the presence of Ca2+/Mg2+; monomers, dimers and trimers stand in the same sample; Disulfide bonds seen: C34-C91 (CC1), C968-C973 (CC2), and CC3 and CC4 in AR15-19; the model ends at G1195; also called α-LTX
stoichiometry N: 4 and 3 and 2
